Measured values published in patent US20240209100A1 (DIAGONAL THERAPEUTICS, published 2024).

B1: DGL162 (bispecific antibody)
heavy 1: QVQLVESGGGLVQAGGSLRLSCAASGRTFSKHAMGWFRQAPGKEREFVAAIDWSGGSTYYADSVKGRFTISRDNAKNTVYLQMDSLKPEDTAVYYCAADSYTDYAQLWLPELESEYDYWGQGTQVTVSSDKGPSVFPLAPEPKSSQVQLQESGGGLVQAGGSLKLSCQASGLTFKRNTMGWFRQAPGKEREFVAHFLWTGGETDYADAVKGRFTISRDNAKNTVYLQMNSLKPEDTAVYFCAANYAGYRIDGYQYWGQGTQVTVSSDKTHTCPPCPAPEAAGGPSVFLFPPKPKDTLMISRTPEVTCVVVDVSHEDPEVKFNWYVDGVEVHNAKTKPREEQYNSTYRVVSVLTVLHQDWLNGKEYKCKVSNKALPAPIEKTISKAKGQPREPQVCTLPPSRDELTKNQVSLSCAVKGFYPSDIAVEWESNGQPENNYKTTPPVLDSDGSFFLVSKLTVDKSRWQQGNVFSCSVMHEALHNHYTQKSLSLSPG
heavy 2: not shown
B2: DGL160 (bispecific antibody)
heavy 1: QVQLVESGGGLVQAGGSLRLSCAASGRTFSSYTMGWFRQAPGKEREFVAAISWSAGRTYYADSVKGRFTISRDNAKNTVYLQMNSLKPEDTAVYFCAAEEAPDWAPIDCSGYGCLSLYDYWGQGTQVTVSSDKGPSVFPLAPEPKSSEVQLVESGGGLVQAGGSLRLSCAASGRTFRNYHMGWFRQAPGQEREFVAAISSSGGKTSYPDSVNGRFTISRDNAKNTVYLQMNNLKVEDTAVYYCAADPRYWVAAGGSEPENVEVWGQGTLVTVSSDKTHTCPPCPAPEAAGGPSVFLFPPKPKDTLMISRTPEVTCVVVDVSHEDPEVKFNWYVDGVEVHNAKTKPREEQYNSTYRVVSVLTVLHQDWLNGKEYKCKVSNKALPAPIEKTISKAKGQPREPQVCTLPPSRDELTKNQVSLSCAVKGFYPSDIAVEWESNGQPENNYKTTPPVLDSDGSFFLVSKLTVDKSRWQQGNVFSCSVMHEALHNHYTQKSLSLSPG
heavy 2: not shown
B3: DGL163 (bispecific antibody)
heavy 1: QVQLVESGGGLVQAGGSLRLSCAASGRTFSSYNMGWFRQAPGKERESVAAISWSGGSSYYADSVKGRFTISRDNAKPTVYLQMNSLKPEDTAVYYCAADRDSEEWDGSSWFFKSDYWGQGTQVTVSSDKGPSVFPLAPEPKSSQVQLVESGGGLVQTGGPLRLSCAASGGTFSRYTMGWFRQAPGKEREYVAAISWRGSSIYYADAVKGRFTISRDSAKSTVYLQMNNLNSDDTAVYYCAADRTDLPRNAGEYGYWGQGTQVTVSSDKTHTCPPCPAPEAAGGPSVFLFPPKPKDTLMISRTPEVTCVVVDVSHEDPEVKFNWYVDGVEVHNAKTKPREEQYNSTYRVVSVLTVLHQDWLNGKEYKCKVSNKALPAPIEKTISKAKGQPREPQVCTLPPSRDELTKNQVSLSCAVKGFYPSDIAVEWESNGQPENNYKTTPPVLDSDGSFFLVSKLTVDKSRWQQGNVFSCSVMHEALHNHYTQKSLSLSPG
heavy 2: not shown
B4: DGL161 (bispecific antibody)
heavy 1: EVQLVESGGGLVQPGGSLRLSCAASGFFLDDYVLGWFRQAPGKPREGVSCISSRGRYLNYAETVKGRFTISRSNAKNTVYLQMNNLEPEDTAVYYCAAVRRVSEVCKLAEDDFASWGQGTQVTVSSDKGPSVFPLAPEPKSSQVQLVESGGGLVQAGDSLRLSCVASERTFSSYTMGWFRQAPGKEREFTAALSWWNGGISTAYADSVKGRFTISRDNAKNTVYLQMNSLKTEDTALYYCAAARDRMPRADEYDYWGQGTQVTVSSDKTHTCPPCPAPEAAGGPSVFLFPPKPKDTLMISRTPEVTCVVVDVSHEDPEVKFNWYVDGVEVHNAKTKPREEQYNSTYRVVSVLTVLHQDWLNGKEYKCKVSNKALPAPIEKTISKAKGQPREPQVCTLPPSRDELTKNQVSLSCAVKGFYPSDIAVEWESNGQPENNYKTTPPVLDSDGSFFLVSKLTVDKSRWQQGNVFSCSVMHEALHNHYTQKSLSLSPG
heavy 2: not shown
B5: DGL093 (bispecific antibody)
heavy 1: QVQLVESGGGLVQAGGSLRLSCAASGRTFSKHAMGWFRQAPGKEREFVAAIDWSGGSTYYADSVKGRFTISRDNAKNTVYLQMDSLKPEDTAVYYCAADSYTDYAQLWLPELESEYDYWGQGTQVTVSSDKTHTCPPCPAPEAAGGPSVFLFPPKPKDTLMISRTPEVTCVVVDVSHEDPEVKFNWYVDGVEVHNAKTKPREEQYNSTYRVVSVLTVLHQDWLNGKEYKCKVSNKALPAPIEKTISKAKGQPREPQVCTLPPSRDELTKNQVSLSCAVKGFYPSDIAVEWESNGQPENNYKTTPPVLDSDGSFFLVSKLTVDKSRWQQGNVFSCSVMHEALHNHYTQKSLSLSPG
heavy 2: not shown
B6: DGL220 (bispecific antibody)
heavy 1: QVQLVESGGGLVQAGGSLRLSCAASGRTFSKHAMGWFRQAPGKEREFVAAIDWSGGSTYYADSVKGRFTISRDNAKNTVYLQMDSLKPEDTAVYYCAADSYTDYAQLWLPELESEYDYWGQGTLVTVSSPLAPCPPCPAPEAAGAPSVFLFPPKPKDTLMISRTPEVTCVVVDVSHEDPEVKFNWYVDGVEVHNAKTKPREEQYNSTYRVVSVLTVLHQDWLNGKEYKCKVSNKALPAPIEKTISKAKGQPREPQVCTLPPSRDELTKNQVSLSCAVKGFYPSDIAVEWESNGQPENNYKTTPPVLDSDGSFFLVSKLTVDKSRWQQGNVFSCSVMHEALHNHYTQKSLSLSPGWSHPQFEK
heavy 2: not shown
B7: DGL222 (bispecific antibody)
heavy 1: QVQLVESGGGLVQAGGSLRLSCAASGRTFSKHAMGWFRQAPGKEREFVAAIDWSGGSTYYADSVKGRFTISRDNAKNTVYLQMDSLKPEDTAVYYCAADSYTDYAQLWLPELESEYDYWGQGTLVTVSSEKSYGPPCPPCPAPEAAGAPSVFLFPPKPKDTLMISRTPEVTCVVVDVSHEDPEVKFNWYVDGVEVHNAKTKPREEQYNSTYRVVSVLTVLHQDWLNGKEYKCKVSNKALPAPIEKTISKAKGQPREPQVCTLPPSRDELTKNQVSLSCAVKGFYPSDIAVEWESNGQPENNYKTTPPVLDSDGSFFLVSKLTVDKSRWQQGNVFSCSVMHEALHNHYTQKSLSLSPGWSHPQFEK
heavy 2: not shown
B8: DGL221 (bispecific antibody)
heavy 1: QVQLVESGGGLVQAGGSLRLSCAASGRTFSKHAMGWFRQAPGKEREFVAAIDWSGGSTYYADSVKGRFTISRDNAKNTVYLQMDSLKPEDTAVYYCAADSYTDYAQLWLPELESEYDYWGQGTLVTVSSGGGGSGGGGSGGGGSGGGGSCPPCPAPEAAGAPSVFLFPPKPKDTLMISRTPEVTCVVVDVSHEDPEVKFNWYVDGVEVHNAKTKPREEQYNSTYRVVSVLTVLHQDWLNGKEYKCKVSNKALPAPIEKTISKAKGQPREPQVCTLPPSRDELTKNQVSLSCAVKGFYPSDIAVEWESNGQPENNYKTTPPVLDSDGSFFLVSKLTVDKSRWQQGNVFSCSVMHEALHNHYTQKSLSLSPGWSHPQFEK
heavy 2: not shown
B9: DGL219 (bispecific antibody)
heavy 1: QVQLVESGGGLVQAGGSLRLSCAASGRTFSKHAMGWFRQAPGKEREFVAAIDWSGGSTYYADSVKGRFTISRDNAKNTVYLQMDSLKPEDTAVYYCAADSYTDYAQLWLPELESEYDYWGQGTLVTVSSPLAPDKTHTCPPCPAPEAAGAPSVFLFPPKPKDTLMISRTPEVTCVVVDVSHEDPEVKFNWYVDGVEVHNAKTKPREEQYNSTYRVVSVLTVLHQDWLNGKEYKCKVSNKALPAPIEKTISKAKGQPREPQVCTLPPSRDELTKNQVSLSCAVKGFYPSDIAVEWESNGQPENNYKTTPPVLDSDGSFFLVSKLTVDKSRWQQGNVFSCSVMHEALHNHYTQKSLSLSPGWSHPQFEK
heavy 2: not shown

Target: T1, IL-18 receptor (IL-18Rα/IL-18Rβ) overexpressed on HEK-Blue IL-18 cells (Homo sapiens (Human), UniProt Q13478 19-541; O95256 20-599)
T1 sequence 1: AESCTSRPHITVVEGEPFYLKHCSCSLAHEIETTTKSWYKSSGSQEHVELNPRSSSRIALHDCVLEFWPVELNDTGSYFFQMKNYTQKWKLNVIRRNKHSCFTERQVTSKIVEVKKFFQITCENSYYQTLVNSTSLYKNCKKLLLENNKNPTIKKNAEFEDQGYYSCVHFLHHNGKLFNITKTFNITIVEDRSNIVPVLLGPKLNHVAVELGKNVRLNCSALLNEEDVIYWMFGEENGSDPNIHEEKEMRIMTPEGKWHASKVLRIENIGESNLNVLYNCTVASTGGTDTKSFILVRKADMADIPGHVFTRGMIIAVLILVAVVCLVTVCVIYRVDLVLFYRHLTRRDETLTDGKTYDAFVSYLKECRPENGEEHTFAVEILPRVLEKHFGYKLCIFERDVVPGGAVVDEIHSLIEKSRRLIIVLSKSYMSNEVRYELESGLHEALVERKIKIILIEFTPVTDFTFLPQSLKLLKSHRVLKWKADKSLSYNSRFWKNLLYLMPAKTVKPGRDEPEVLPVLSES
T1 sequence 2: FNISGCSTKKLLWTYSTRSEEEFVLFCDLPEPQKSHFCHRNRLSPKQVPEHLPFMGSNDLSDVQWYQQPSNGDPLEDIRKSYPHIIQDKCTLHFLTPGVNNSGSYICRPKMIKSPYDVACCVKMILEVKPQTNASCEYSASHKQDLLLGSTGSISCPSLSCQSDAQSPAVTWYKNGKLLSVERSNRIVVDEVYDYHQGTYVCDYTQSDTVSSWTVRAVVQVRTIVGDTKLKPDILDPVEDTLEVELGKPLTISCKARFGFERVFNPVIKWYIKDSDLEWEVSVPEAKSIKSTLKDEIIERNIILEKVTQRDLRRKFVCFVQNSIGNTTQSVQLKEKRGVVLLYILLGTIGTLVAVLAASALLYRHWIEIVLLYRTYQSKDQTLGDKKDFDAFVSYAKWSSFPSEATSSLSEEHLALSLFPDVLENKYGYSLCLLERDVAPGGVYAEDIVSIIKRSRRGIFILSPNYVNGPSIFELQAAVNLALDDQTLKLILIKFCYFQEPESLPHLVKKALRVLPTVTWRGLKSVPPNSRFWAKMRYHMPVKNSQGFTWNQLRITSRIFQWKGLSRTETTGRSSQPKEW
Assay: cell-based or functional assay

| Binder | HEK-Blue IL-18: Abs 405 [Abs] | HEK-Blue IL-18: Fold over Background [fold] |
| --- | --- | --- |
| B1 | 0.79 | 6.6 |
| B2 | 0.16 | 1.3 |
| B3 | 0.36 | 3 |
| B4 | 0.19 | 1.6 |

Target: T1, IL-18 receptor (IL-18Rα/IL-18Rβ) …
Assay: cell-based or functional assay
Remark: another data set of the same source

| Binder | HEK-Blue IL-18: Abs405 (Emax) [Abs] | HEK-Blue IL-18: EC50 [pM] |
| --- | --- | --- |
| B5 | 1.38 | 8.3 |

Target: T1, IL-18 receptor (IL-18Rα/IL-18Rβ) …
Assay: cell-based or functional assay
Remark: another data set of the same source

| Binder | HEK-Blue IL-18: Fold over Background [fold] |
| --- | --- |
| B5 | 9.2 |

Target: T1, IL-18 receptor (IL-18Rα/IL-18Rβ) …
Assay: cell-based or functional assay
Remark: another data set of the same source

| Binder | HEK-Blue IL-18: Abs 405 at 100 nM [Abs] | HEK-Blue IL-18: Fold over Background [fold] |
| --- | --- | --- |
| B6 | 1.5 | 6.6 |
| B7 | 1.3 | 5.5 |
| B5 | 0.9 | 4.1 |
| B8 | 0.6 | 2.4 |
| B9 | 1 | 4.4 |
